First the molecules themselves.
B1: Serine/threonine-protein kinase DCLK2 (Homo sapiens), Q8N568 (parent)
chain: MASTRSIELEHFEERDKRPRPGSRRGAPSSSGGSSSSGPKGNGLIPSPAHSAHCSFYRTRTLQALSSEKKAKKARFYRNGDRYFKGLVFAISSDRFRSFDALLIELTRSLSDNVNLPQGVRTIYTIDGSRKVTSLDELLEGESYVCASNEPFRKVDYTKNINPNWSVNIKGGTSRALAAASSVKSEVKESKDFIKPKLVTVIRSGVKPRKAVRILLNKKTAHSFEQVLTDITEAIKLDSGVVKRLCTLDGKQVTCLQDFFGDDDVFIACGPEKFRYAQDDFVLDHSECRVLKSSYSRSSAVKYSGSKSPGPSRRSKSPASVNGTPSSQLSTPKSTKSSSSSPTSPGSFRGLKQISAHGRSSSNVNGGPELDRCISPEGVNGNRCSESSTLLEKYKIGKVIGDGNFAVVKECIDRSTGKEFALKIIDKAKCCGKEHLIENEVSILRRVKHPNIIMLVEEMETATELFLVMELVKGGDLFDAITSSTKYTERDGSAMVYNLANALRYLHGLSIVHRDIKPENLLVCEYPDGTKSLKLGDFGLATVVEGPLYTVCGTPTYVAPEIIAETGYGLKVDIWAAGVITYILLCGFPPFRSENNLQEDLFDQILAGKLEFPAPYWDNITDSAKELISQMLQVNVEARCTAGQILSHPWVSDDASQENNMQAEVTGKLKQHFNNALPKQNSTTTGVSVIMNTALDKEGQIFCSKHCQDSGRPGMEPISPVPPSVEEIPVPGEAVPAPTPPESPTPHPPPAAPGGERAGTWRRHRD
partner: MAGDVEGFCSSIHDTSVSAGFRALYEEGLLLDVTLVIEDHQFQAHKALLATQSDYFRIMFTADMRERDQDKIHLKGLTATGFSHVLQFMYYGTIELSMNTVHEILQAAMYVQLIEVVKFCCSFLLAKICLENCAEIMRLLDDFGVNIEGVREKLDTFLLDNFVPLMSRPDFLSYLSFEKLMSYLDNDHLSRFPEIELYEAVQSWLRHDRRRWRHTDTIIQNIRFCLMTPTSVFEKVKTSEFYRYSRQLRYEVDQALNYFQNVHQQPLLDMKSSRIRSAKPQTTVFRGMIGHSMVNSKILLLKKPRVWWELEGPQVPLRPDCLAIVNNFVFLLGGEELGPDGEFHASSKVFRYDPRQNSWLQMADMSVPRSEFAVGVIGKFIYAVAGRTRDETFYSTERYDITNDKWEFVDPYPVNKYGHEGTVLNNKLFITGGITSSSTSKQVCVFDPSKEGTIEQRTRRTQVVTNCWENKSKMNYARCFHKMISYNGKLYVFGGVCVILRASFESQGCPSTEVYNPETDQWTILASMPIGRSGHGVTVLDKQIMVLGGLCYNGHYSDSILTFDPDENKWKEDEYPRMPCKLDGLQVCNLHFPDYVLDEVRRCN
B2: Neuronal migration protein doublecortin (Mus musculus), O88809 (parent)
chain: MELDFGHFDERDKASRNMRGSRMNGLPSPTHSAHCSFYRTRTLQALSNEKKAKKVRFYRNGDRYFKGIVYAVSSDRFRSFDALLADLTRSLSDNINLPQGVRYIYTIDGSRKIGSMDELEEGESYVCSSDNFFKKVEYTKNVNPNWSVNVKTSANMKAPQSLASSNSAQARENKDFVRPKLVTIIRSGVKPRKAVRVLLNKKTAHSFEQVLTDITEAIKLETGVVKKLYTLDGKQVTCLHDFFGDDDVFIACGPEKFRYAQDDFSLDENECRVMKGNPSAAAGPKASPTPQKTSAKSPGPMRRSKSPADSGNDQDANGTSSSQLSTPKSKQSPISTPTSPGSLRKHKVDLYLPLSLDDSDSLGDSM
partner: B1 partner
B3: Serine/threonine-protein kinase DCLK1 (Homo sapiens), O15075 (parent)
chain: MSFGRDMELEHFDERDKAQRYSRGSRVNGLPSPTHSAHCSFYRTRTLQTLSSEKKAKKVRFYRNGDRYFKGIVYAISPDRFRSFEALLADLTRTLSDNVNLPQGVRTIYTIDGLKKISSLDQLVEGESYVCGSIEPFKKLEYTKNVNPNWSVNVKTTSASRAVSSLATAKGSPSEVRENKDFIRPKLVTIIRSGVKPRKAVRILLNKKTAHSFEQVLTDITDAIKLDSGVVKRLYTLDGKQVMCLQDFFGDDDIFIACGPEKFRYQDDFLLDESECRVVKSTSYTKIASSSRRSTTKSPGPSRRSKSPASTSSVNGTPGSQLSTPRSGKSPSPSPTSPGSLRKQRSSQHGGSSTSLASTKVCSSMDENDGPGEEVSEEGFQIPATITERYKVGRTIGDGNFAVVKECVERSTAREYALKIIKKSKCRGKEHMIQNEVSILRRVKHPNIVLLIEEMDVPTELYLVMELVKGGDLFDAITSTNKYTERDASGMLYNLASAIKYLHSLNIVHRDIKPENLLVYEHQDGSKSLKLGDFGLATIVDGPLYTVCGTPTYVAPEIIAETGYGLKVDIWAAGVITYILLCGFPPFRGSGDDQEVLFDQILMGQVDFPSPYWDNVSDSAKELITMMLLVDVDQRFSAVQVLEHPWVNDDGLPENEHQLSVAGKIKKHFNTGPKPNSTAAGVSVIATTALDKERQVFRRRRNQDVRSRYKAQPAPPELNSESEDYSPSSSETVRSPNSPF
partner: B1 partner

The variants in one experiment derive from B1. As to conditions: with klh15_human KLHL15, Q96M94.
As for Y276L, the “effect of a mutation on the interaction” value is “decreasing interaction”.

The variants in another experiment derive from B2. To be noted: with klh15_human KLHL15, Q96M94.
With Y259L, the “effect of a mutation on the interaction” value is reported as “decreasing interaction”.

The variants in another experiment derive from B3. As to conditions: with klh15_human KLHL15, Q96M94.
Take Y265L: the “effect of a mutation on the interaction” value is reported as “decreasing interaction”.

The values are drawn from IntAct's records for PubMed 33199366.
